Patent publication US8143216B2, “Modified human growth hormone” (Ambrx, Inc., priority 2004, dated 2012)

Assays:
[1] = molecular target: T1, human growth hormone receptor on IM-9 cells (Homo sapiens, UniProt P10912); assay: IM-9 pSTAT5 bioassay (STAT5 phosphorylation in IM-9 cells); type: cell-based; details: IM-9; WHO hGH is expressed as unity
T1 construct: host or cells: human IM-9 lymphocyte cell line
T1 sequence (P10912 19-638): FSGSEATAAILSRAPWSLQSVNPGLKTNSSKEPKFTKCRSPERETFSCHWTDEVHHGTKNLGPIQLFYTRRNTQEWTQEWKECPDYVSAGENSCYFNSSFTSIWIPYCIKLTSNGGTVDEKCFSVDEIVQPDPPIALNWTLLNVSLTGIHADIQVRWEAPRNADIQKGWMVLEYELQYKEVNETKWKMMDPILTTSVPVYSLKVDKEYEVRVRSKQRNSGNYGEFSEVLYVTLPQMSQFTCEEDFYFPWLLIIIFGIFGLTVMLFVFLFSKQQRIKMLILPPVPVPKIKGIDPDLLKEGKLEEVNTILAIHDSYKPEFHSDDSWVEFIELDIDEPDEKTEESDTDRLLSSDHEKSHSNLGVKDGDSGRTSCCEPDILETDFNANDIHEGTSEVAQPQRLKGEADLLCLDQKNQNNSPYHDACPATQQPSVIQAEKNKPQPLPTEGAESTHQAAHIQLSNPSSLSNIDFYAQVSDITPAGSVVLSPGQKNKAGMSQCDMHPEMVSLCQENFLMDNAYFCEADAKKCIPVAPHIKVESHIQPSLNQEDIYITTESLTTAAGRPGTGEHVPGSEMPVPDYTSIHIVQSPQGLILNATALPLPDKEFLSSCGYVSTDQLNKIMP
Description: (§1) To further assess the biological activity of modified hGH polypeptides, an assay measuring a downstream marker of hGH's interaction with its receptor was used. The interaction of hGH with its endogenously produced receptor leads to the tyrosine phosphorylation of a signal transducer and activator of transcription family member, STAT5, in the human IM-9 lymphocyte cell line. Two forms of STAT5, STAT5A and STAT5B were identified from an IM-9 cDNA library. See, e.g., Silva et al., Mol. Endocrinol. (1996) 10(5):508-518.
IM-9 cells were stimulated with hGH polypeptides of the present invention. The human IM-9 lymphocytes were purchased from ATCC (Manassas, Va.) and grown in RPMI 1640 supplemented with sodium pyruvate, penicillin, streptomycin (Invitrogen, Carlsbad, San Diego) and 10% heat inactivated fetal calf serum (Hyclone, Logan, Utah). The IM-9 cells were starved overnight in assay media (phenol-red free RPMI, 10 mM Hepes, 1% heat inactivated charcoal/dextran treated FBS, sodium pyruvate, penicillin and streptomycin) before stimulation with a 12-point dose range of hGH polypeptides for 10 min at 37° C. Stimulated cells were fixed with 1% formaldehyde before permeabilization with 90% ice-cold methanol for 1 hour on ice. The level of STAT5 phosphorylation was detected by intra-cellular staining with a primary phospho-STAT5 antibody (Cell Signaling Technology, Beverly, Mass.) at room temperature for 30 min followed by a PE-conjugated secondary antibody. Sample acquisition was performed on the FACS Array with acquired data analyzed on the Flowjo software (Tree Star Inc., Ashland, Oreg.). EC50 values were derived from dose response curves plotted with mean fluorescent intensity (MFI) against protein concentration utilizing SigmaPlot.
The interaction of hGH with its receptor leads to the tyrosine phosphorylation of a signal transducer and activator of transcription family member, STAT5, in the human IM-9 lymphocyte cell line.

[2] = tested on: rat GHR (L43R) expressing BAF3 cell line, 2E2-2B12-F4; assay: Proliferation by BrdU labeling; type: cell-based, mouse; details: WHO hGH is expressed as unity
Protocol: All cell cultures were maintained at 37° C. in a humidified atmosphere of 5% CO2.

[3] = molecular target: T2, rat GHR ECD (L43R) (Rattus norvegicus, UniProt P16310, L61R); assay: Biacore analysis of binding of GH to GHR; details: rat GHR ECD (L43R) immobilized on a CM5 chip, bivalent analyte model
T2 construct: (GHR ECD, amino acids S29-T238) was cloned into pET20b vector; made in house
T2 sequence (P16310 47-256 L61R): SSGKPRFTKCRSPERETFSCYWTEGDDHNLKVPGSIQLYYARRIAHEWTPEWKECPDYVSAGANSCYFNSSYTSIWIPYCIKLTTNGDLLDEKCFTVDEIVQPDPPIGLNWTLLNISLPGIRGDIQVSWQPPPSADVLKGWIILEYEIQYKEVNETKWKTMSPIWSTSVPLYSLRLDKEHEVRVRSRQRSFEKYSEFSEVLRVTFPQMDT
Protocol: Cloning and purification of rat GH receptor The extracellular domain of rat GH receptor (GHR ECD, amino acids S29-T238) was cloned into pET20b vector (Novagen) between Nde I and Hind III sites in frame with C-terminal 6H is tag. A mutation of L43 to R was introduced to further approximate the human GH receptor binding site (Souza et al., Proc Natl Acad Sci USA. (1995) 92(4): 959-63). Recombinant protein was produced in BL21 (DE3) E. coli cells (Novagen) by induction with 0.4 mM IPTG at 30° C. for 4-5 hours. After lysing the cells, the pellet was washed four times by resuspending in a dounce with 30 mL of 50 mM Tris, pH 7.6, 100 mM NaCl, 1 mM EDTA, 1% Triton X-100, and twice with the same buffer without Triton X-100. […] Refolding was accomplished by means of passing an aliquot of the inclusion body solution through a S100 (Sigma) gel filtration column, equilibrated with 50 mM Tris, pH 7.8, 1 M L-arginine, 3.7 mM cystamine, 6.5 mM cysteamine. Fractions containing soluble protein were combined and dialyzed against 50 mM Tris, pH 7.6, 200 mM NaCl, 10% glycerol. The sample was briefly centrifuged to remove any precipitate and incubated with an aliquot of Talon resin (Clontech), according to manufacturer's instructions. After washing the resin with 20 volumes of dialysis buffer supplemented with 5 mM imidazole, protein was eluted with 120 mM imidazole in dialysis buffer. Finally, the sample was dialyzed overnight against 50 mM Tris, pH 7.6, 30 mM NaCl, 1 mM EDTA, 10% glycerol, centrifuged briefly to remove any precipitate, adjusted to 20% glycerol final concentration, aliquoted and stored at −80 C. Concentration of the protein was measured by OD(280) using calculated extinction coefficient of ε=65,700 M^−1*cm^−1.
Approximately 600-800 RUs of soluble GHR ECD was immobilized on a Biacore™ CM5 chip, using a standard amine-coupling procedure, as recommended by the manufacturer. […] See, e.g., Cunningham et al. J Mol. Biol. (1993) 234(3): 554-63 and Wells J A. Proc Natl Acad Sci USA (1996) 93(1): 1-6).
Various concentrations of wild type or mutant GH (0.1-300 nM) in HBS-EP buffer (Biacore™, Pharmacia) were injected over the GHR surface at a flow rate of 40 μl/min for 4-5 minutes, and dissociation was monitored for 15 minutes post-injection. The surface was regenerated by a 15 second pulse of 4.5M MgCl2. […] Reference cell with no receptor immobilized was used to subtract any buffer bulk effects and non-specific binding.
Kinetic binding data obtained from GH titration experiments was processed with BiaEvaluation 4.1 software (BIACORE™). […] Equilibrium dissociation constants (Kd) were calculated as ratios of individual rate constants (koff/kon).

[4] = Pharmacokinetic studies, single s.c. dose in normal male Sprague-Dawley rats; type: in vivo, rat; details: single-dose 1 mg/kg bolus s.c., normal male Sprague-Dawley rats
Protocol: Pharmacokinetic properties of PEG-modified growth hormone compounds were compared to each other and to nonPEGylated growth hormone in male Sprague-Dawley rats (261-425 g) obtained from Charles River Laboratories. Catheters were surgically installed into the carotid artery for blood collection. Following successful catheter installation, animals were assigned to treatment groups (three to six per group) prior to dosing. Animals were dosed subcutaneously with 1 mg/kg of compound in a dose volume of 0.41-0.55 ml/kg. Blood samples were collected at various time points via the indwelling catheter and into EDTA-coated microfuge tubes. Plasma was collected after centrifugation, and stored at −80° C. until analysis. Compound concentrations were measured using antibody sandwich growth hormone ELISA kits from either BioSource International (Camarillo, Calif.) or Diagnostic Systems Laboratories (Webster, Tex.). Concentrations were calculated using standards corresponding to the analog that was dosed. Pharmacokinetic parameters were estimated using the modeling program WinNonlin (Pharsight, version 4.1). Noncompartmental analysis with linear-up/log-down trapezoidal integration was used, and concentration data was uniformly weighted.
Rats (n=3-4 per group) were given a single bolus dose of 1 mg/kg hGH wild-type protein (WHO hGH), His-tagged hGH polypeptide (his-hGH), or His-tagged hGH polypeptide comprising non-natural amino acid p-acetyl-phenylalanine at position 92 covalently linked to 30 kDa PEG (30 KPEG-pAF92(his)hGH). Plasma samples were taken over the indicated time intervals and assayed for injected compound as described.
Rats (n=3-6 per group) were given a single bolus dose of 1 mg/kg protein. hGH polypeptides comprising non-natural amino acid p-acetyl-phenylalanine covalently linked to 30 kDa PEG at each of six different positions were compared to WHO hGH and (his)-hGH. Plasma samples were taken over the indicated time intervals and assayed for injected compound as described. Concentration vs time curves were evaluated by noncompartmental analysis (Pharsight, version 4.1). Values shown are averages (+/− standard deviation). Cmax: maximum concentration; terminal t1/2: terminal half-life; AUC0->inf: area under the concentration-time curve extrapolated to infinity; MRT: mean residence time; Cl/f: apparent total, plasma clearance; Vz/f: apparent volume of distribution during terminal phase.

[5] = tested on: hypophysectomized rats; assay: Pharmacodynamic studies in hypophysectomized rats (Example 30); type: in vivo, rat; details: s.c., compared with the pAF92 30 kDa PEG compound, p<0.0005
Protocol: Hypophysectomized male Sprague-Dawley rats were obtained from Charles River Laboratories. Pituitaries were surgically removed at 3-4 weeks of age. Animals were allowed to acclimate for a period of three weeks, during which time bodyweight was monitored. Animals with a bodyweight gain of 0-8 g over a period of seven days before the start of the study were included and randomized to treatment groups. Rats were administered either a bolus dose or daily dose subcutaneously. Throughout the study rats were daily and sequentially weighed, anesthetized, bled, and dosed (when applicable). Blood was collected from the orbital sinus using a heparinized capillary tube and placed into an EDTA coated microfuge tube. Plasma was isolated by centrifugation and stored at −80° C. until analysis.
The peptide IGF-1 is a member of the family of somatomedins or insulin-like growth factors. IGF-1 mediates many of the growth-promoting effects of growth hormone. IGF-1 concentrations were measured using a competitive binding enzyme immunoassay kit against the provided rat/mouse IGF-1 standards (Diagnosic Systems Laboratories). Significant difference was determined by t-test using two-tailed distribution, unpaired, equal variance. […] Rats (n=5-7 per group) were given either a single dose or daily dose subcutaneously. Animals were sequentially weighed, anesthetized, bled, and dosed (when applicable) daily. […]

[6] = molecular target: T1, human growth hormone receptor on IM-9 cells; assay: Inhibition of WHO hGH induced phosphorylation of STAT5 in IM-9 cells; type: cell-based
Description: as §1

F92pAF/G120R-30KPEG: hGH with G120R and p-acetyl-phenylalanine at position 92 linked to 30 kDa PEG
EC50 [1]: > 200 µM | EC50 [2]: > 200 µM

F92pAF/G120R: hGH with p-acetyl-phenylalanine substituted for F92 and a G120R substitution
EC50 [1]: > 200 µM | EC50 [2]: > 200 µM

Y35pAF-30KD PEG: hGH polypeptide comprising p-acetyl-phenylalanine at position 35 covalently linked to 30 kDa PEG
kon [3]: 90000 M⁻¹ s⁻¹ | AUC0−>inf [4]: 39,918 ng × hr/ml | Cl/f [4]: 35 mL/h/kg | Cmax [4]: 1,885 ng/ml | MRT [4]: 19.16 h | Terminal t1/2 [4]: 4.85 h | bodyweight gain at day 9 [5]: greater weight gain was observed

B1: rat GHR (L43R) extra cellular domain: extracellular domain of rat GH receptor (amino acids S29-T238) with L43 to R mutation (protein)
chain: T2 sequence (P16310 47-256 L61R)
modifications: left off: small tags and cut ends
notes: extracellular domain of rat GH receptor (amino acids S29-T238) with L43 to R mutation
competition against hGH stimulated pSTAT5 phosphorylation / antagonist potency [6]: compete effectively against hGH stimulated pSTAT5 phoshorylation
